From patent publication US20140086916A1 (Merck Sharp & Dohme, published 2014)
Like-named read-outs stand apart in the source and are kept apart here.

Columns and labels:
Assay in all cases: ELISA-type plate assay, FcγR coated, antibody dimerized with AP-conjugated goat anti-human IgG F(ab')2, RFU readout
[1] = target: T1, FcγRIIb (Pichia pastoris produced) (UniProt P31994 43-217, limits assumed)
T1 construct: also called FcgRIIB; CD32B
T1 sequence (looked up): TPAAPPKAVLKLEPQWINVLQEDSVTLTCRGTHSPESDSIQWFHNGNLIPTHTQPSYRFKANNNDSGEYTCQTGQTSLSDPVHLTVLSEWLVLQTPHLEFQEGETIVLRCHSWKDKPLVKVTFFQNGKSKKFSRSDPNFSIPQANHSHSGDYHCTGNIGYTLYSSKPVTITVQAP
Description: (§1) Fcγ receptor binding assays were carried out as described (Shields, et al. (2001) J. Biol. Chem. 276:6591-6604) with minor modifications. High protein binding 96-well plates (Corning Costar) were coated with 100 μL per well of Fcγ receptor solutions in PBS at the following concentrations: 1 μg/mL for both FcγRI (R&D Systems) and FcγRIIa (Pichia pastoris produced), 2 μg/mL for FcγRIIb (P. pastoris produced), 0.8 μg/mL for FcγRIIIa-F158, and 0.4 μg/mL for FcγRIIIa-V158 (both P. pastoris produced). All Pichia pastoris produced receptors were expressed and purified as described (Li, et al. (2006) Nature Biotechnology 24:210-215). Monomeric antibody samples added to the FcγRI plate were serially diluted in assay diluent (1×PBS, 1% BSA, and 0.05% Tween20) and 100 μL, per well was added to the plate. Antibody samples prepared for the remaining receptors require a one hour dimerization step with half molar ratio of goat anti-human IgG F(ab′)2 F(ab′)2 that is conjugated with alkaline phosphatase for detection. These dimerized F(ab′)2/antibody complexes were also serially diluted and 100 μL per well were added to the remaining receptor plates and all plates were incubated for one hour at room temperature. FcγRI bound sample antibody was detected using the same goat anti-human IgG F(ab′)2 alkaline phosphatase conjugated F(ab′)2. Sample antibody binding was quantified by measuring excitation at 340 nm and emission at 465 nm after 18 hour incubation with SuperPhos, 4-MUP Fluorescence AP Substrate Detection System (Virolabs).

[2] = target: T2, FcγRIIIa-F158 (Pichia pastoris produced) (UniProt P08637 17-208, limits assumed)
T2 construct: also called FcγRIIIA LF; FcgRIIIA LF
T2 sequence (P08637 17-208 limits assumed): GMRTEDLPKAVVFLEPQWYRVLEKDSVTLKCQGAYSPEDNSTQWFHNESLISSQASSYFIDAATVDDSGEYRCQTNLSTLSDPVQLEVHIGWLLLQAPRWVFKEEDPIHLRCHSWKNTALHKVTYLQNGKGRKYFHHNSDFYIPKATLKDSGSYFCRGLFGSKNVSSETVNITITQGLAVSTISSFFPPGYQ
Description: as §1

[3] = target: T3, FcγRIIa (Pichia pastoris produced) (UniProt P12318 34-217, limits assumed)
T3 construct: also called CD32A
T3 sequence (looked up): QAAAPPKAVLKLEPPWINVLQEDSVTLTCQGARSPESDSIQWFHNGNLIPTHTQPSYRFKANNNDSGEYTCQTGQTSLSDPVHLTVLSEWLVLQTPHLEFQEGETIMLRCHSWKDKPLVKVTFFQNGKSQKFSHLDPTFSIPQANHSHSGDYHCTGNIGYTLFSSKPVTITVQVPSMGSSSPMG
Description: as §1

[4] = target: T2, FcγRIIIa-F158 (Pichia pastoris produced); remark: listed apart in the source
Description: as §1

B1: 1F11 wildtype (parent) humanized anti-PCSK9 monoclonal IgG1 antibody (antibody)
heavy: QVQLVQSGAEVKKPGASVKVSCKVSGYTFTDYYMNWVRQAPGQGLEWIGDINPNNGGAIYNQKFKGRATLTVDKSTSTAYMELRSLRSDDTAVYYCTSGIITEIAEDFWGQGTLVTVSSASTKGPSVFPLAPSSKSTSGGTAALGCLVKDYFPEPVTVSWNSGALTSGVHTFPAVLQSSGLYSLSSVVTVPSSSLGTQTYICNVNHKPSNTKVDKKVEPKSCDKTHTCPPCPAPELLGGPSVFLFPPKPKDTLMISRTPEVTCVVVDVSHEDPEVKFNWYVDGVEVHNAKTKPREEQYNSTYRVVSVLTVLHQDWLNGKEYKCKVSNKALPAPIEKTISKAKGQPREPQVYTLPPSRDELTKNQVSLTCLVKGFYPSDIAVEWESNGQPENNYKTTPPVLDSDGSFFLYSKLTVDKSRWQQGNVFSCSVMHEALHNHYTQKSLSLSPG
light: DIQMTQSPSSLSASVGDRVTITCKASQNVGTNVVWYQQKPGKAPKALIHSASYRYSGVPSRFSGSGSGTDFTLTISSLQPEDFATYYCQQYKTYPYTFGQGTKVEIKRTVAAPSVFIFPPSDEQLKSGTASVVCLLNNFYPREAKVQWKVDNALQSGNSQESVTEQDSKDSTYSLSSTLTLSKADYEKHKVYACEVTHQGLSSPVTKSFNRGEC
notes: Produced in glycoengineered Pichia pastoris GFI5.0 (strain YGLY21351); also called 1F11 IgG1 GS5.0; YGLY21351
- EC50 (read off the curve) [1]: ~0.1 µg/mL
- EC50 (read off the curve) [2]: ~0.02 µg/mL
- EC50 (read off the curve) [3]: ~0.06 µg/mL
- EC50 (read off the curve) [4]: ~0.02 µg/mL
